Laboratory results taken from patent US20260242735A1 (UNIVERSIT T BASEL, published 2026).

Key:
Assay in all cases: alanine scan, flow cytometry, HEK293-T;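 further: antibody binding to each alanine-substituted CD33 mutant expressed transiently in HEK293-T, read as fluorescence minus background, mean of duplicates, relative to wild-type CD33 set as 100%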
human CD33 G94A = human CD33 G94A (human, UniProt P20138 18-364)
human CD33 Q87A = human CD33 Q87A (human, UniProt P20138 18-364)
human CD33 E85A = human CD33 E85A (human, UniProt P20138 18-364)
Chain of human CD33 E85A (P20138 18-364 E85A limits assumed): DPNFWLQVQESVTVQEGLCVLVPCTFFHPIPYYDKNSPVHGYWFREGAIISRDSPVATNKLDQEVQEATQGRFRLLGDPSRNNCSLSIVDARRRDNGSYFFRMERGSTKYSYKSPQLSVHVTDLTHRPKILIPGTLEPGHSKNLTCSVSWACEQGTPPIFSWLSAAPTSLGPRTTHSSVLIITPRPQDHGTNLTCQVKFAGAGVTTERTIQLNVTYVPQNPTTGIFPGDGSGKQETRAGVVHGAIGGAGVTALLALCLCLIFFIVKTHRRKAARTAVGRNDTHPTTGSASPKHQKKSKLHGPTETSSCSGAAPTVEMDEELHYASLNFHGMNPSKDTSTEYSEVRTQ

human CD33 Y49A = human CD33 Y49A (human, UniProt P20138 18-364)
Chain of human CD33 Y49A (P20138 18-364 Y49A limits assumed): as the sequence (P20138 18-364 E85A limits assumed) above, with Y32A, A68E counted along it

human CD33 L78A = human CD33 L78A (human, UniProt P20138 18-364)
Chain of human CD33 L78A (P20138 18-364 L78A limits assumed): as the sequence (P20138 18-364 E85A limits assumed) above, with L61A, A68E counted along it

human CD33 R89A = human CD33 R89A (human, UniProt P20138 18-364)
Chain of human CD33 R89A (P20138 18-364 R89A limits assumed): as the sequence (P20138 18-364 E85A limits assumed) above, with A68E, R72A counted along it

human CD33 N76A = human CD33 N76A (human, UniProt P20138 18-364)
Chain of human CD33 N76A (P20138 18-364 N76A limits assumed): as the sequence (P20138 18-364 E85A limits assumed) above, with N59A, A68E counted along it

human CD33 V73A = human CD33 V73A (human, UniProt P20138 18-364)
Chain of human CD33 V73A (P20138 18-364 V73A limits assumed): as the sequence (P20138 18-364 E85A limits assumed) above, with V56A, A68E counted along it

human CD33 F117A = human CD33 F117A (human, UniProt P20138 18-364)
Chain of human CD33 F117A (P20138 18-364 F117A limits assumed): as the sequence (P20138 18-364 E85A limits assumed) above, with A68E, F100A counted along it

human CD33 C101A = human CD33 C101A (human, UniProt P20138 18-364)
Chain of human CD33 C101A (P20138 18-364 C101A limits assumed): as the sequence (P20138 18-364 E85A limits assumed) above, with A68E, C84A counted along it

human CD33 G88A = human CD33 G88A (human, UniProt P20138 18-364)
Chain of human CD33 G88A (P20138 18-364 G88A limits assumed): as the sequence (P20138 18-364 E85A limits assumed) above, with A68E, G71A counted along it

human CD33 E81A = human CD33 E81A (human, UniProt P20138 18-364)
Chain of human CD33 E81A (P20138 18-364 E81A limits assumed): as the sequence (P20138 18-364 E85A limits assumed) above, with E64A, A68E counted along it

human CD33 D70A = human CD33 D70A (human, UniProt P20138 18-364)
Chain of human CD33 D70A (P20138 18-364 D70A limits assumed): as the sequence (P20138 18-364 E85A limits assumed) above, with D53A, A68E counted along it

human CD33 N53A = human CD33 N53A (human, UniProt P20138 18-364)
Chain of human CD33 N53A (P20138 18-364 N53A limits assumed): as the sequence (P20138 18-364 E85A limits assumed) above, with N36A, A68E counted along it

human CD33 S102A = human CD33 S102A (human, UniProt P20138 18-364)
Chain of human CD33 S102A (P20138 18-364 S102A limits assumed): as the sequence (P20138 18-364 E85A limits assumed) above, with A68E, S85A counted along it

human CD33 T86A = human CD33 T86A (human, UniProt P20138 18-364)
Chain of human CD33 T86A (P20138 18-364 T86A limits assumed): as the sequence (P20138 18-364 E85A limits assumed) above, with A68E, T69A counted along it

human CD33 D107A = human CD33 D107A (human, UniProt P20138 18-364)
Chain of human CD33 D107A (P20138 18-364 D107A limits assumed): as the sequence (P20138 18-364 E85A limits assumed) above, with A68E, D90A counted along it

human CD33 S68A = human CD33 S68A (human, UniProt P20138 18-364)
Chain of human CD33 S68A (P20138 18-364 S68A limits assumed): as the sequence (P20138 18-364 E85A limits assumed) above, with S51A, A68E counted along it

human CD33 R109A = human CD33 R109A (human, UniProt P20138 18-364)
Chain of human CD33 R109A (P20138 18-364 R109A limits assumed): as the sequence (P20138 18-364 E85A limits assumed) above, with A68E, R92A counted along it

human CD33 F61A = human CD33 F61A (human, UniProt P20138 18-364)
Chain of human CD33 F61A (P20138 18-364 F61A limits assumed): as the sequence (P20138 18-364 E85A limits assumed) above, with F44A, A68E counted along it

human CD33 G188A = biological target: T1, human CD33 G188A (human, UniProt P20138 18-364)
T1 construct: alanine scan clone, transfected HEK293-T
T1 sequence (P20138 18-364 G188A limits assumed): as the sequence (P20138 18-364 E85A limits assumed) above, with A68E, G171A counted along it

human CD33 P145A = biological target: T2, human CD33 P145A (human, UniProt P20138 18-364)
T2 construct: alanine scan clone, transfected HEK293-T
T2 sequence (P20138 18-364 P145A limits assumed): as the sequence (P20138 18-364 E85A limits assumed) above, with A68E, P128A counted along it

human CD33 S128A = biological target: T3, human CD33 S128A (human, UniProt P20138 18-364)
T3 construct: alanine scan clone, transfected HEK293-T
T3 sequence (P20138 18-364 S128A limits assumed): as the sequence (P20138 18-364 E85A limits assumed) above, with A68E, S111A counted along it

human CD33 Y127A = biological target: T4, human CD33 Y127A (human, UniProt P20138 18-364)
T4 construct: alanine scan clone, transfected HEK293-T
T4 sequence (P20138 18-364 Y127A limits assumed): as the sequence (P20138 18-364 E85A limits assumed) above, with A68E, Y110A counted along it

human CD33 T191A = biological target: T5, human CD33 T191A (human, UniProt P20138 18-364)
T5 construct: alanine scan clone, transfected HEK293-T
T5 sequence (P20138 18-364 T191A limits assumed): as the sequence (P20138 18-364 E85A limits assumed) above, with A68E, T174A counted along it

human CD33 I149A = biological target: T6, human CD33 I149A (human, UniProt P20138 18-364)
T6 construct: alanine scan clone, transfected HEK293-T
T6 sequence (P20138 18-364 I149A limits assumed): as the sequence (P20138 18-364 E85A limits assumed) above, with A68E, I132A counted along it

human CD33 T185A = biological target: T7, human CD33 T185A (human, UniProt P20138 18-364)
T7 construct: alanine scan clone, transfected HEK293-T
T7 sequence (P20138 18-364 T185A limits assumed): as the sequence (P20138 18-364 E85A limits assumed) above, with A68E, T168A counted along it

human CD33 T162A = biological target: T8, human CD33 T162A (human, UniProt P20138 18-364)
T8 construct: alanine scan clone, transfected HEK293-T
T8 sequence (P20138 18-364 T162A limits assumed): as the sequence (P20138 18-364 E85A limits assumed) above, with A68E, T145A counted along it

human CD33 P184A = biological target: T9, human CD33 P184A (human, UniProt P20138 18-364)
T9 construct: alanine scan clone, transfected HEK293-T
T9 sequence (P20138 18-364 P184A limits assumed): as the sequence (P20138 18-364 E85A limits assumed) above, with A68E, P167A counted along it

human CD33 S178A = biological target: T10, human CD33 S178A (human, UniProt P20138 18-364)
T10 construct: alanine scan clone, transfected HEK293-T
T10 sequence (P20138 18-364 S178A limits assumed): as the sequence (P20138 18-364 E85A limits assumed) above, with A68E, S161A counted along it

human CD33 T192A = biological target: T11, human CD33 T192A (human, UniProt P20138 18-364)
T11 construct: alanine scan clone, transfected HEK293-T
T11 sequence (P20138 18-364 T192A limits assumed): as the sequence (P20138 18-364 E85A limits assumed) above, with A68E, T175A counted along it

human CD33 P150A = biological target: T12, human CD33 P150A (human, UniProt P20138 18-364)
T12 construct: alanine scan clone, transfected HEK293-T
T12 sequence (P20138 18-364 P150A limits assumed): as the sequence (P20138 18-364 E85A limits assumed) above, with A68E, P133A counted along it

human CD33 E170A = biological target: T13, human CD33 E170A (human, UniProt P20138 18-364)
T13 construct: alanine scan clone, transfected HEK293-T
T13 sequence (P20138 18-364 E170A limits assumed): as the sequence (P20138 18-364 E85A limits assumed) above, with A68E, E153A counted along it

human CD33 V138A = biological target: T14, human CD33 V138A (human, UniProt P20138 18-364)
T14 construct: alanine scan clone, transfected HEK293-T
T14 sequence (P20138 18-364 V138A limits assumed): as the sequence (P20138 18-364 E85A limits assumed) above, with A68E, V121A counted along it

human CD33 I176A = biological target: T15, human CD33 I176A (human, UniProt P20138 18-364)
T15 construct: alanine scan clone, transfected HEK293-T
T15 sequence (P20138 18-364 I176A limits assumed): as the sequence (P20138 18-364 E85A limits assumed) above, with A68E, I159A counted along it

human CD33 C212A = human CD33 C212A (human, UniProt P20138 18-364)
Chain of human CD33 C212A (P20138 18-364 C212A limits assumed): as the sequence (P20138 18-364 E85A limits assumed) above, with A68E, C195A counted along it

Chain of human CD33 Q87A (P20138 18-364 Q87A limits assumed): as the sequence (P20138 18-364 E85A limits assumed) above, with A68E, Q70A counted along it
Chain of human CD33 G94A (P20138 18-364 G94A limits assumed): as the sequence (P20138 18-364 E85A limits assumed) above, with A68E, G77A counted along it

B1: Refmab #6 (antibody, V domains shown)
VH: QVQLQQPGAEVVKPGASVKMSCKASGYTFTSYYIHWIKQTPGQGLEWVGVIYPGNDDISYNQKFQGKATLTADKSSTTAYMQLSSLTSEDSAVYYCAREVRLRYFDVWGQGTTVTVSS
VL: EIVLTQSPGSLAVSPGERVTMSCKSSQSVFFSSSQKNYLAWYQQIPGQSPRLLIYWASTRESGVPDRFTGSGSGTDFTLTISSVQPEDLAIYYCHQYLSSRTFGQGTKLEIK
notes: Full-length format is human IgG1 Fc silent (PG-LALA); also made as Fab; The alanine scan used IgG or Fab
Mean % WT Binding (human CD33 G94A): 93.1 % WT binding | Mean % WT Binding (human CD33 Q87A): 96.9 % WT binding | Mean % WT Binding (human CD33 E85A): 94.4 % WT binding | Mean % WT Binding (human CD33 Y49A): 113 % WT binding | Mean % WT Binding (human CD33 L78A): 110 % WT binding | Mean % WT Binding (human CD33 R89A): 80.8 % WT binding | Mean % WT Binding (human CD33 N76A): 86.8 % WT binding | Mean % WT Binding (human CD33 V73A): 77.7 % WT binding | Mean % WT Binding (human CD33 F117A): 90.3 % WT binding | Mean % WT Binding (human CD33 C101A): 6.2 % WT binding | Mean % WT Binding (human CD33 G88A): 105 % WT binding | Mean % WT Binding (human CD33 E81A): 88.1 % WT binding | Mean % WT Binding (human CD33 D70A): 80.3 % WT binding | Mean % WT Binding (human CD33 N53A): 96.8 % WT binding | Mean % WT Binding (human CD33 S102A): 85.1 % WT binding | Mean % WT Binding (human CD33 T86A): 80.1 % WT binding | Mean % WT Binding (human CD33 D107A): 96.5 % WT binding | Mean % WT Binding (human CD33 S68A): 86.4 % WT binding | Mean % WT Binding (human CD33 R109A): 107 % WT binding | Mean % WT Binding (human CD33 F61A): 111 % WT binding

B2: Refmab #6 (antibody, V domains shown)
VH: B1 VH
VL: B1 VL
notes: The alanine scan used IgG or Fab
Mean % WT Binding (human CD33 G188A): 100 % WT binding | Mean % WT Binding (human CD33 P145A): 89.7 % WT binding | Mean % WT Binding (human CD33 S128A): 127 % WT binding | Mean % WT Binding (human CD33 Y127A): 42 % WT binding | Mean % WT Binding (human CD33 T191A): 88.5 % WT binding | Mean % WT Binding (human CD33 I149A): 100 % WT binding | Mean % WT Binding (human CD33 T185A): 117 % WT binding | Mean % WT Binding (human CD33 T162A): 87.2 % WT binding | Mean % WT Binding (human CD33 P184A): 92.2 % WT binding | Mean % WT Binding (human CD33 S178A): 102 % WT binding | Mean % WT Binding (human CD33 T192A): 99 % WT binding | Mean % WT Binding (human CD33 P150A): 106 % WT binding | Mean % WT Binding (human CD33 E170A): 89.5 % WT binding | Mean % WT Binding (human CD33 V138A): 65.4 % WT binding | Mean % WT Binding (human CD33 I176A): 102 % WT binding

B3: Refmab #3 (antibody, V domains shown)
VH: QVQLVQSGAEVKKPGSSVKVSCKASGYTFTDYNMHWVRQAPGQGLEWIGYIYPYNGGTGYNQKFKSKATITADESTNTAYMELSSLRSEDTAVYYCARGRPAMDYWGQGTLVTVSS
VL: DIQMTQSPSSLSASVGDRVTITCRASESVDNYGISFMNWFQQKPGKAPKLLIYAASNQGSGVPSRFSGSGSGTDFTLTISSLQPDDFATYYCQQSKEVPWTFGQGTKVEIK
notes: In the alanine scan antibodies were used as IgG or Fab
Mean % WT Binding (human CD33 C212A): 57.3%

B4: Refmab #5 (antibody, V domains shown)
VH: QVQLVQSGAEVKKPGASVKVSCKASGYTFTNYDINWVRQAPGQGLEWIGWIYPGDGSTKYNEKFKAKATLTADTSTSTAYMELRSLRSDDTAVYYCASGYEDAMDYWGQGTTVTVSS
VL: DIQMTQSPSSLSASVGDRVTINCKASQDINSYLSWFQQKPGKAPKTLIYRANRLVDGVPSRFSGSGSGQDYTLTISSLQPEDFATYYCLQYDEFPLTFGGGTKVEIK
notes: as for B1
Mean % WT Binding (human CD33 G94A): 92.2 % WT binding | Mean % WT Binding (human CD33 Q87A): 137 % WT binding | Mean % WT Binding (human CD33 E85A): 158 % WT binding | Mean % WT Binding (human CD33 Y49A): 20.6 % WT binding | Mean % WT Binding (human CD33 L78A): 99.3 % WT binding | Mean % WT Binding (human CD33 R89A): 137 % WT binding | Mean % WT Binding (human CD33 N76A): 124 % WT binding | Mean % WT Binding (human CD33 V73A): 112 % WT binding | Mean % WT Binding (human CD33 F117A): 113 % WT binding | Mean % WT Binding (human CD33 C101A): 23 % WT binding | Mean % WT Binding (human CD33 G88A): 118 % WT binding | Mean % WT Binding (human CD33 E81A): 140 % WT binding | Mean % WT Binding (human CD33 D70A): 112 % WT binding | Mean % WT Binding (human CD33 N53A): 97.6 % WT binding | Mean % WT Binding (human CD33 S102A): 154 % WT binding | Mean % WT Binding (human CD33 T86A): 124 % WT binding | Mean % WT Binding (human CD33 D107A): 119 % WT binding | Mean % WT Binding (human CD33 S68A): 142 % WT binding | Mean % WT Binding (human CD33 R109A): 103 % WT binding | Mean % WT Binding (human CD33 F61A): 161 % WT binding

B5: Refmab #5 (antibody, V domains shown)
VH: B4 VH
VL: B4 VL
notes: as for B2
Mean % WT Binding (human CD33 G188A): 114 % WT binding | Mean % WT Binding (human CD33 P145A): 82.9 % WT binding | Mean % WT Binding (human CD33 S128A): 283 % WT binding | Mean % WT Binding (human CD33 Y127A): 199 % WT binding | Mean % WT Binding (human CD33 T191A): 115 % WT binding | Mean % WT Binding (human CD33 I149A): 112 % WT binding | Mean % WT Binding (human CD33 T185A): 94 % WT binding | Mean % WT Binding (human CD33 T162A): 92.4 % WT binding | Mean % WT Binding (human CD33 P184A): 107 % WT binding | Mean % WT Binding (human CD33 S178A): 117 % WT binding | Mean % WT Binding (human CD33 T192A): 109 % WT binding | Mean % WT Binding (human CD33 P150A): 132 % WT binding | Mean % WT Binding (human CD33 E170A): 110 % WT binding | Mean % WT Binding (human CD33 V138A): 101 % WT binding | Mean % WT Binding (human CD33 I176A): 97 % WT binding

B6: Refmab #4 (antibody, V domains shown)
VH: QVQLVQSGAEVKKPGESVKVSCKASGYTFTNYGMNWVKQAPGQGLEWMGWINTYTGEPTYADKFQGRVTMTTDTSTSTAYMEIRNLGGDDTAVYYCARWSWSDGYYVYFDYWGQGTSVTVSS
VL: DIVMTQSPDSLTVSLGERTTINCKSSQSVLDSSTNKNSLAWYQQKPGQPPKLLLSWASTRESGIPDRFSGSGSGTDFTLTIDSPQPEDSATYYCQQSAHFPITFGQGTRLEIK
notes: as for B3
Mean % WT Binding (human CD33 C212A): 11%
